Laboratory results taken from PMC2173804.

Target: GST-FKH (FKHRL1/FOXO3a DNA-binding domain) (UniProt O43524 141-268, S253A)
Assay: EMSA

Sequence of GST-FKH (FKHRL1/FOXO3a DNA-binding domain) (O43524 141-268 S253A): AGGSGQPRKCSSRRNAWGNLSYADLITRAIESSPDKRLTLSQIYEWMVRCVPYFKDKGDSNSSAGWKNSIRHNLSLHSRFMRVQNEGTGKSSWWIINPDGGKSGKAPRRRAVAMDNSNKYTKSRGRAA

B1: bim1 (dsDNA)
DNA 1: CTAGCTAGGGTAAACACGCCG
DNA 2: CTAGCGGCGTGTTTACCCTAG
binding result: binds

B2: mut2 (dsDNA)
DNA 1: CTAGGCAAGGTAAGTTCTCCT
DNA 2: CTAGAGGAGAACTTACCTTGC
binding result: no binding

B3: bim2 (dsDNA)
DNA 1: CTAGGCAAGGTAAACACTCCT
DNA 2: CTAGAGGAGTGTTTACCTTGC
binding result: binds

B4: mut1 (dsDNA)
DNA 1: CTAGCTAGGGTACCCACGCCG
DNA 2: CTAGCGGCGTGGGTACCCTAG
binding result: no binding

B5: FasL (dsDNA)
DNA 1: CTAGAATAAGTAAATAAATAA
DNA 2: CTAGTTATTTATTTACTTATT
binding result: binds
